Here are results for two substances from article PMC6981973.

For the experiment, the target named is transferrin receptor (TfR) (human (endogenous in Caco-2)) (UniProt P02786).
transferrin receptor (TfR) (human (endogenous in Caco-2)), sequence (P02786 whole entry): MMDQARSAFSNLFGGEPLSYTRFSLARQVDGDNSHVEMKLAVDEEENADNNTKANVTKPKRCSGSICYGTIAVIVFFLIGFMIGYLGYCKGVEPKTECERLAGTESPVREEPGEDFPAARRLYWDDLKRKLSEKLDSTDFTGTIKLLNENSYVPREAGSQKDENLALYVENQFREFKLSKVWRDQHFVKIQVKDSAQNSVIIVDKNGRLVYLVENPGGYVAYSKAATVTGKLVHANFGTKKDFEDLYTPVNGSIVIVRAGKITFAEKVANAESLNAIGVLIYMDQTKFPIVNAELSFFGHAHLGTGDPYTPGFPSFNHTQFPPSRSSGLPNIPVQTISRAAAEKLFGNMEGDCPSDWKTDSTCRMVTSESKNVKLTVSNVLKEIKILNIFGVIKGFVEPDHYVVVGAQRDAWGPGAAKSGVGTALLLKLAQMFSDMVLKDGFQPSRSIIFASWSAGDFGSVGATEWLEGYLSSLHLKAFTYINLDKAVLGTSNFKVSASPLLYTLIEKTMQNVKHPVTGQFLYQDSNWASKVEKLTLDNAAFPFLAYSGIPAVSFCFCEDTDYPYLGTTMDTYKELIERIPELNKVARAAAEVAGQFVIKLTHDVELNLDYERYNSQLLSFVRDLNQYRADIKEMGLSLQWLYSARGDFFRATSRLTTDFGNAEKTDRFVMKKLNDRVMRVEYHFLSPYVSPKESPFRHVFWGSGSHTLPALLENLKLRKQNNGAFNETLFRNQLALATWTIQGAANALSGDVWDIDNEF

rFIX-Tf/Dithi, sequence (P02787 whole entry, looked up): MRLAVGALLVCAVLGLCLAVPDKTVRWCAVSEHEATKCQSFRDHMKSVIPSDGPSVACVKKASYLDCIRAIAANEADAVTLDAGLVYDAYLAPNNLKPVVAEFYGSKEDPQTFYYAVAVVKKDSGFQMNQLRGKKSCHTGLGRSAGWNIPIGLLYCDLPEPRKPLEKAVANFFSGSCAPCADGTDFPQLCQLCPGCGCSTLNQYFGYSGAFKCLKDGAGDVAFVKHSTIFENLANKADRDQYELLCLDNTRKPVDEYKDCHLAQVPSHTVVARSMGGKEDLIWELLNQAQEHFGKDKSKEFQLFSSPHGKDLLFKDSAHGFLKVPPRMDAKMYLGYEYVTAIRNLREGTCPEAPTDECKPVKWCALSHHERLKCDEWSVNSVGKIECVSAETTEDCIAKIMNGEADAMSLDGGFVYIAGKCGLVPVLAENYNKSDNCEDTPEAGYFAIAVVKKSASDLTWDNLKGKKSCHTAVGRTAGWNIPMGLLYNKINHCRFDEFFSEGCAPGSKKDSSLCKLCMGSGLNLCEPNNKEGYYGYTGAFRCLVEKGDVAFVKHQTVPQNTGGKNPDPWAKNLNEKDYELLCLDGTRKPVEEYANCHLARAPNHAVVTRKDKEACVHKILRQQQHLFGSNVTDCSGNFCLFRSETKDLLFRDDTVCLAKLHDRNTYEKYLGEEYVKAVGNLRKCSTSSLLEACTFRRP
rFIX-Tf/Dithi, sequence (P00740 whole entry, looked up): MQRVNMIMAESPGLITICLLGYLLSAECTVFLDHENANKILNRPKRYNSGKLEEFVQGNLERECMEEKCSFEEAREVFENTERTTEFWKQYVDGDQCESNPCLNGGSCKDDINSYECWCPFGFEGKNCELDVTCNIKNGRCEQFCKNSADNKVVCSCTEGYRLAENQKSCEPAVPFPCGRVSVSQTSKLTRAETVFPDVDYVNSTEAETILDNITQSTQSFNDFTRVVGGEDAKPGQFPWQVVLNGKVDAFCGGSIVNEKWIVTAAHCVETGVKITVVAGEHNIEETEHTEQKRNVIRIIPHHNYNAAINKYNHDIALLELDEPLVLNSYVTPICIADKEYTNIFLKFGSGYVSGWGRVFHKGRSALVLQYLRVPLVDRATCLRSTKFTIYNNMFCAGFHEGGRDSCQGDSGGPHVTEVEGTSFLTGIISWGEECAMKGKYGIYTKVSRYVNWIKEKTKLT

“BeneFIX^®, a marketed coagulation factor IX (recombinant) product (enzyme)”: the specific (total minus nonspecific with 100-fold excess Tf) apical-to-basolateral transcytosis across Caco-2 monolayers, about 100 mIU/mL apical, 2, 4 and 6 h; protein transport rate at 6 h is 0.024%.
“rFIX-Tf/Dithi (from UniProt P00740 47-461; P02787 20-698)”: the specific apical-to-basolateral transcytosis across Caco-2 monolayers at 6 h, fold over BeneFIX stood at 4.4 fold and the specific apical-to-basolateral transcytosis across Caco-2 monolayers, fold over FIX-Tf (LE dipeptide linker) amounted to 1.5 fold.
